Residue numbers refer to the chain shown, from its start. Numbers in names are those of the source. Each block holds one binder with its values, some of them ahead of it.
Experiments:
[1] = target: T1, Recombinant Human DLL4 (delta-like protein 4) (human, UniProt Q9NR61 27-524); assay: ELISA on coated DLL4, Fab at 6.25 nM (2-fold serial dilution)
T1 construct: also called rHuman DLL4; Delta-like 4

[2] = target: T1, Recombinant Human DLL4 (delta-like …); assay: ELISA on coated DLL4, Fab at 100 nM (2-fold serial dilution)
[3] = target: T1, Recombinant Human DLL4 (delta-like …); assay: ELISA on coated DLL4, Fab at 3.125 nM (2-fold serial dilution)
[4] = target: T1, Recombinant Human DLL4 (delta-like …); assay: ELISA on coated DLL4, Fab at 12.5 nM (2-fold serial dilution)
[5] = target: T1, Recombinant Human DLL4 (delta-like …); assay: ELISA on coated DLL4, Fab at 25 nM (2-fold serial dilution)
[6] = target: T1, Recombinant Human DLL4 (delta-like …); assay: ELISA on coated DLL4, Fab at 50 nM (2-fold serial dilution)
[7] = target: T2, Recombinant Human DLL4 (delta-like protein 4) (human, UniProt Q9NR61 27-524); assay: ECL (Meso Scale Discovery) binding assay on immobilised recombinant human DLL4; Fab concentration not given
T2 construct: Bought recombinant protein (R&D Systems Cat#1506-D4/CF); also called rHuman DLL4; Delta-like 4

[8] = target: T3, rHuman CD44/Fc Chimera, CF (R&D Systems Cat#3660-CD) (human, UniProt P16070 21-220); assay: ECL multispot (MSD) binding assay, antigens spotted on plate, 20 nM Fab;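 also: fab incubated 1 h at 20 °C on antigen-spotted wells, bound Fab detected by TAG-labelled antibody, ratio of 4 or more over blank counted as a hit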
T3 construct: Bought recombinant protein; Fc part of the bought chimera not given

[9] = target: T4, rHuman ErbB2/Fc Chimera, CF (R&D Systems Cat#1129-ER) (human, UniProt P04626 23-652); assay: as above
T4 construct: Bought recombinant protein; also called human epidermal growth factor 2 receptor; Fc part of the bought chimera not given

[10] = target: T5, Recombinant Human DLL4 (R&D Systems Cat#1506-D4/CF) (human, UniProt Q9NR61 27-524); assay: as above
T5 construct: Bought recombinant protein; also called delta-like protein 4; rHuman DLL4

[11] = target: T6, rHuman IGF-1 sR, (IGF-1 sR), CF (R&D Systems Cat#391-GR) (human, UniProt P08069 31-932); assay: as above
T6 construct: Bought recombinant soluble receptor; The column head prints only 'IGF-1'; also called insulin-like growth factor-1 soluble receptor

[12] = target: T7, rHuman Erythropoietin R/Fc Chimera, CF (R&D Systems Cat#963-ER) (human, UniProt P19235 25-250); assay: as above
T7 construct: Bought recombinant protein; also called EPO R; Epo R; Fc part of the bought chimera not given
T7 sequence (looked up): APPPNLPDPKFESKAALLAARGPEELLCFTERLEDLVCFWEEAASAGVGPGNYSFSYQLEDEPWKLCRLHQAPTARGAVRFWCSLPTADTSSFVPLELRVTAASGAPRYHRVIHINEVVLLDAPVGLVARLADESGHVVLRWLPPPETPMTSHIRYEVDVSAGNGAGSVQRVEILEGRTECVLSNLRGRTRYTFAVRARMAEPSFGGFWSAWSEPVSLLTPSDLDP

[13] = target: T8, rHuman P-Cadherin/Fc Chimera, CF (R&D Systems Cat#861-PC) (human, UniProt P22223 108-654); assay: as above
T8 construct: Bought recombinant protein; Fc part of the bought chimera not given

[14] = target: T9, rHuman EGF R/Fc Chimera, CF (R&D Systems Cat#344-ER) (human, UniProt P00533 25-645); assay: as above
T9 construct: Bought recombinant protein; also called epidermal growth factor receptor; Fc part of the bought chimera not given

[15] = target: T10, rHuman P-Cadherin/Fc Chimera, CF (R&D Systems Cat#861-PC) (human, UniProt P22223 108-654); assay: ECL (MSD) multispot binding assay, antigen spotted on plate, 20 nM Fab;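 also: purified Fab incubated 1 h at 20 °C on antigen-spotted plate, bound Fab revealed with TAG detection antibody, ECL read, antigen signal divided by same-well blank, ratio ≥4 counted as hit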
T10 construct: Bought reagent; Fc part of the bought chimera not given

[16] = target: T11, rHuman ErbB2/Fc Chimera, CF (R&D Systems Cat#1129-ER) (human, UniProt P04626 23-652); assay: as above
T11 construct: Bought reagent; also called human epidermal growth factor 2 receptor; Fc part of the bought chimera not given

[17] = target: T12, Recombinant Human DLL4 (R&D Systems Cat#1506-D4/CF) (human, UniProt Q9NR61 27-524); assay: as above
T12 construct: Bought recombinant protein; also called delta-like protein 4; rHuman DLL4

[18] = target: T13, rHuman Notch-1/Fc Chimera, CF (R&D Systems Cat#3647-TK) (human, UniProt P46531 19-526); assay: as above
T13 construct: Bought reagent; Fc part of the bought chimera not given

[19] = target: T14, rHuman Erythropoietin R/Fc Chimera, CF (R&D Systems Cat#963-ER) (human, UniProt P19235 25-250); assay: as above
T14 construct: Bought reagent; also called EPO R; EPO R/Fc; Fc part of the bought chimera not given
T14 sequence (looked up): T7 sequence (looked up)

[20] = target: T15, rHuman IGF-1 sR, CF (R&D Systems Cat#391-GR) (human, UniProt P08069 31-932); assay: as above
T15 construct: Bought soluble receptor; also called insulin-like growth factor-1 soluble receptor

[21] = target: T16, rHuman CD44/Fc Chimera, CF (R&D Systems Cat#3660-CD) (human, UniProt P16070 21-220); assay: as above
T16 construct: Bought reagent; Fc part of the bought chimera not given

[22] = target: T17, rHuman IGF-1 sR, (IGF-1 sR), CF (R&D Systems Cat#391-GR) (human, UniProt P08069 31-932); assay: as above
T17 construct: Bought recombinant soluble receptor; also called insulin-like growth factor-1 soluble receptor

[23] = target: T18, rHuman P-Cadherin/Fc Chimera, CF (R&D Systems Cat#861-PC) (human, UniProt P22223 108-654); assay: as above
T18 construct: Bought recombinant protein; Fc part of the bought chimera not given

[24] = target: T19, rHuman EGF R/Fc Chimera, CF (R&D Systems Cat#344-ER) (human, UniProt P00533 25-645); assay: as above
T19 construct: Bought recombinant protein; also called epidermal growth factor receptor; Fc part of the bought chimera not given

[25] = target: T20, Recombinant Human DLL4 (R&D Systems Cat#1506-D4/CF) (human, UniProt Q9NR61 27-524); assay: as above; remark: listed apart in the source
T20 construct: Bought recombinant protein; also called delta-like protein 4; rHuman DLL4

[26] = target: T21, rHuman ErbB2/Fc Chimera, CF (R&D Systems Cat#1129-ER) (human, UniProt P04626 23-652); assay: as above
T21 construct: Bought recombinant protein; also called human epidermal growth factor 2 receptor; Fc part of the bought chimera not given

ELISA signal [1]: 0.249 | ELISA signal [2]: 0.253 | ELISA signal [3]: 0.244 | ELISA signal [4]: 0.23 | ELISA signal [5]: 0.22 | ELISA signal [6]: 0.209
B1: Fab VH5-51_IGHD5-18*01>3_IGHJ4*01 G100K/G104T T58A & V3-4_IGLJ1*01 (Fab, V domains shown)
VH: EVQLVQSGAEVKKPGESLKISCKGSGYSFTSYWIGWVRQMPGKGLEWMGIIYPGDSDARYSPSFQGQVTISADKSISTAYLQWSSLKASDTAMYYCARRKYSYTYDYFDYWGQGTLVTVSS
VL: QTVVTQEPSFSVSPGGTVTLTCGLSSGSVSTSYYPSWYQQTPGQAPRTLIYSTNTRSSGVPDRFSGSILGNKAALTITGAQADDESDYYCVLYMGSGISYVFGTGTKVTVL
notes: Fab; also called H:KT T58A & L:parent

ECL signal [7]: 9550
B2: Fab VH5-51_IGHD5-18*01>3_IGHJ4*01 G100K/G104T (H:KT) & V3-4_IGLJ1*01 T78L (Fab, V domains shown)
VH: B1 VH with A58T
VL: B1 VL with T78L
notes: Fab with CH1 and lambda CL from the expression plasmids; also called G100K/G104T & T78L

ELISA signal [1]: 0.224 | ELISA signal [2]: 0.219 | ELISA signal [3]: 0.252 | ELISA signal [4]: 0.223 | ELISA signal [5]: 0.218 | ELISA signal [6]: 0.23
B3: Fab VH5-51_IGHD5-18*01>3_IGHJ4*01 G100K/G104T T58D & V3-4_IGLJ1*01 (Fab, V domains shown)
VH: B1 VH with A58D
VL: B1 VL
notes: Fab; also called H:KT T58D & L:parent

More lines, now with the values behind:

B4: Fab VH3-23_IGHD2-21*01>3_IGHJ6*01 H100E/S108P/Y113G Y110I & V2-13_IGLJ2*01 (Fab, V domains shown)
VH: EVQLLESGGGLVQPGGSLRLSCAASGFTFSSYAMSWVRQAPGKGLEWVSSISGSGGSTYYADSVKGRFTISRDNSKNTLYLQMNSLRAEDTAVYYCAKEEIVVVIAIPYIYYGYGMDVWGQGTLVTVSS
VL: SSELTQDPAVSVALGQTVRITCQGDSLRSYYASWYQQKPGQAPVLVIYGKNNRPSGIPDRFSGSSSGNTASLTITGAQAEDEADYYCNSRDSSGNHLVVFGGGTKLTVL
notes: Tested as Fab made in E. coli: VH joined to CH1 (His and Flag tags), VL joined to lambda CL; also called EPG Y110I
ECL multispot signal (ratio to blank; column not labelled) [8]: 1.7 | ECL multispot signal (ratio to blank; column not labelled) [9]: 11.4 | ECL multispot signal (ratio to blank; column not labelled) [10]: 2 | ECL multispot signal (ratio to blank; column not labelled) [11]: 1.4 | ECL multispot signal (ratio to blank; column not labelled) [12]: 73.7 | ECL multispot signal (ratio to blank; column not labelled) [13]: 39 | ECL multispot signal (ratio to blank; column not labelled) [14]: 8.6

B5: Fab VH3-23_IGHD2-21*01>3_IGHJ6*01 H100E/S108P/Y113G Y112R & V2-13_IGLJ2*01 (Fab, V domains shown)
VH: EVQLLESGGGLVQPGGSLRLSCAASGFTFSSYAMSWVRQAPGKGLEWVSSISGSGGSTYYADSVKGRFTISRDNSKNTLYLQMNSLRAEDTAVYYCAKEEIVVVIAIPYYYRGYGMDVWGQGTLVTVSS
VL: B4 VL
notes: Tested as Fab made in E. coli (VH-CH1 with His and Flag tags from plasmid A; lambda CL from plasmid E); also called EPG Y112R
ECL multispot value [15]: 30 | ECL multispot value [16]: 5.9 | ECL multispot value [17]: 2.6 | ECL multispot value [18]: 2.7 | ECL multispot value [19]: 85.1 | ECL multispot value [20]: 1.5 | ECL multispot value [21]: 1.6

B6: Fab VH3-23_IGHD2-21*01>3_IGHJ6*01 H100E/S108P/Y113G Y110W & V2-13_IGLJ2*01 (Fab, V domains shown)
VH: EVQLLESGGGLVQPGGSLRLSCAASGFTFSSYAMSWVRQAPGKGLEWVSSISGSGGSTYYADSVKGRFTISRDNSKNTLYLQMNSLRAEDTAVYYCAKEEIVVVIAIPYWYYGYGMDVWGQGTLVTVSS
VL: B4 VL
notes: Tested as Fab made in E. coli: VH joined to CH1 (His and Flag tags), VL joined to lambda CL; also called EPG Y110W
ECL multispot signal (ratio to blank; column not labelled) [9]: 16.5 | ECL multispot signal (ratio to blank; column not labelled) [12]: 117 | ECL multispot signal (ratio to blank; column not labelled) [13]: 38.8 | ECL multispot signal (ratio to blank; column not labelled) [14]: 7.6

B7: Fab VH3-23_IGHD2-21*01>3_IGHJ6*01 H100E/S108P/Y113G/Y111W & V2-13_IGLJ2*01 (Fab, V domains shown)
VH: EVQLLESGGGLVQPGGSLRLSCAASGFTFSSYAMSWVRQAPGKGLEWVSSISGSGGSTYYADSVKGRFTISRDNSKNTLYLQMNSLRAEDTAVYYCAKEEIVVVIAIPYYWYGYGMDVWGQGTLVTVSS
VL: B4 VL
notes: Fab made in E. coli: VH joined to CH1 (with His and Flag tags, plasmid A) and VL to lambda CL (plasmid E); also called EPG Y111W
ECL signal/blank ratio [22]: 1.4 | ECL signal/blank ratio [23]: 49.2 | ECL signal/blank ratio [24]: 16.3 | ECL signal/blank ratio [25]: 2.8 | ECL signal/blank ratio [26]: 26.5

B8: Fab VH3-23_IGHD2-21*01>3_IGHJ6*01 H100E/S108P/Y113G Y110T & V2-13_IGLJ2*01 (Fab, V domains shown)
VH: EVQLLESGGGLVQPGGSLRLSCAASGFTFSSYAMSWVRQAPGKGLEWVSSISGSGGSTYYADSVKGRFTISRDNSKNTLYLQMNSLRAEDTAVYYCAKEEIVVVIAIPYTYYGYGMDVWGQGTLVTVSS
VL: B4 VL
notes: Tested as Fab made in E. coli: VH joined to CH1 (His and Flag tags), VL joined to lambda CL; also called EPG Y110T
ECL multispot signal (ratio to blank; column not labelled) [8]: 1.6 | ECL multispot signal (ratio to blank; column not labelled) [9]: 0.8 | ECL multispot signal (ratio to blank; column not labelled) [10]: 1.8 | ECL multispot signal (ratio to blank; column not labelled) [11]: 1.8 | ECL multispot signal (ratio to blank; column not labelled) [13]: 1 | ECL multispot signal (ratio to blank; column not labelled) [14]: 1.8

Reference: patent US20120316071A1 (published 2012)
